Earlier results as cited in article PMC2888830.

Biological target: integrin αIIbβ3 (Homo sapiens) (UniProt P08514)

Substance: disagregin (from UniProt P36235)
- Kd: 40 nM
